Starred links: 1 amine or outer side, 2 acyl side, 3 side chain; linkers in the order of their positions; H or OH if unused. Non-standard residues stand in square brackets, D forms with d. No end group written: not given here. pCF2‑Ser = (α,α-difluoromethylene)phosphonoserine, O=C([C@H](CC(F)(F)P(=O)(O)O)N[*:1])[*:2]
Experiments:
ScCdc14^1-449 = biological target: T1, ScCdc14^1-449 (S. cerevisiae, UniProt Q00684 1-449); conditions: both partners purified
T1 construct: Expressed from pDEST17; also called Saccharomyces cerevisiae Cdc14 truncation that retains the SLiCE motif; source: E. coli, purified (HisTrap nickel sepharose)
T1 sequence (looked up): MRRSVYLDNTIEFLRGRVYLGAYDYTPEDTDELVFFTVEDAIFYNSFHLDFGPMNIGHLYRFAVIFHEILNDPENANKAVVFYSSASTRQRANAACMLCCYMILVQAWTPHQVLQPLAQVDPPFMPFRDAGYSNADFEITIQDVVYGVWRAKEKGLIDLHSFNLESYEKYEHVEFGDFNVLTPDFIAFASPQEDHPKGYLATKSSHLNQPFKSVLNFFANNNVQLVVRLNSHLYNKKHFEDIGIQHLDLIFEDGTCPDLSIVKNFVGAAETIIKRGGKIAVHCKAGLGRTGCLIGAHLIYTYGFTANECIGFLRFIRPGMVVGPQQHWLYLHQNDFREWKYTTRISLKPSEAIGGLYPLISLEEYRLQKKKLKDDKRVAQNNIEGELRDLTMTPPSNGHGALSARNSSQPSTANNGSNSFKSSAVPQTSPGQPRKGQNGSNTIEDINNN

ScCdc14^P433A/K435A = biological target: T2, ScCdc14^P433A/K435A (S. cerevisiae, UniProt Q00684 1-449, P433A | K435A); conditions: both partners purified
T2 construct: source: E. coli, purified (HisTrap nickel sepharose)
T2 sequence (looked up): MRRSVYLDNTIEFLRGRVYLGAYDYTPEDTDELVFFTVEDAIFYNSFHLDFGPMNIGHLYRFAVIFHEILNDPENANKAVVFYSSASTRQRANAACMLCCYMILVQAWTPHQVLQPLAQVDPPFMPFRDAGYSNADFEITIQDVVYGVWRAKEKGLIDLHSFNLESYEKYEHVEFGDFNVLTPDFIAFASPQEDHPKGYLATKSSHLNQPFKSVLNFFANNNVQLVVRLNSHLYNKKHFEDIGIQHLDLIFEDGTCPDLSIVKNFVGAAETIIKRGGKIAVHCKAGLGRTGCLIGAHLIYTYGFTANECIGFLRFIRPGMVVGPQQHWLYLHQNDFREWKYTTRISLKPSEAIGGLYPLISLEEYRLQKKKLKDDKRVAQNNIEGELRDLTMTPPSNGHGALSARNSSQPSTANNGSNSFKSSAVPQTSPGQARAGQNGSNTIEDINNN

B1: EV(pCF2-Ser)PTKR (peptide)
peptide: EV[pCF2‑Ser]PTKR
Kd (ScCdc14^1-449): 6 ± 2 µM
Kd (ScCdc14^P433A/K435A): 13 ± 4 µM

From publication PMC11407943, “Cdc14 phosphatases use an intramolecular pseudosubstrate motif to stimulate and regulate catalysis” (The Journal of Biological Chemistry, 2024)
